Data on 6 molecules can be found in patent US20210139548A1 (published 2021).

*1 amine or outer side, *2 acyl side, *3 side chain or, on linkers, in order; H or OH if unused. Side-chain parts run from the residue outwards. The star is where a group is joined. C18 diacid = O=C(O)CCCCCCCCCCCCCCCCC(=O)*; γGlu = O=C(O)[C@H](CCC(=O)[*:2])N[*:1]; Isovaleryl = CC(C)CC(=O)*; AEEA = NCCOCCOCC(=O)O

T1: human neuropeptide Y2 receptor (human, UniProt P49146 1-381)
T1 construct: whole, on cells; also called hNPY2 receptor; hNPY2-R
T1 sequence (looked up): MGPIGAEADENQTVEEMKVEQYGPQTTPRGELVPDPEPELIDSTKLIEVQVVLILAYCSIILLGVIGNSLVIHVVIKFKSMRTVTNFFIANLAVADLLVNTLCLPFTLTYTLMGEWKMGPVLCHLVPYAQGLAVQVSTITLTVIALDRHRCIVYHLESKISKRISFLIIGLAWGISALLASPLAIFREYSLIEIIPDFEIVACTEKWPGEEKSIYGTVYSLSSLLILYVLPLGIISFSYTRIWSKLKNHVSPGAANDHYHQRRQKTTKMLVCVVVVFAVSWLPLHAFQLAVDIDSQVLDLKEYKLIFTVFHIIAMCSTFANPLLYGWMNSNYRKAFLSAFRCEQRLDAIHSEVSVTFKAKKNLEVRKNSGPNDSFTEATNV

B1: Compound 205 (peptide)
peptide: Isovaleryl-APEK([AEEA-AEEA-γGlu-C18 diacid])PEEEASPEELQKYYVSLRHYYNWLTRQRY-NH2
SMILES: CC(C)CC(=O)N[C@@H](C)C(=O)N1CCC[C@H]1C(=O)N[C@@H](CCC(=O)O)C(=O)N[C@@H](CCCCNC(=O)COCCOCCNC(=O)COCCOCCNC(=O)CC[C@H](NC(=O)CCCCCCCCCCCCCCCCC(=O)O)C(=O)O)C(=O)N1CCC[C@H]1C(=O)N[C@@H](CCC(=O)O)C(=O)N[C@@H](CCC(=O)O)C(=O)N[C@@H](CCC(=O)O)C(=O)N[C@@H](C)C(=O)N[C@@H](CO)C(=O)N1CCC[C@H]1C(=O)N[C@@H](CCC(=O)O)C(=O)N[C@@H](CCC(=O)O)C(=O)N[C@@H](CC(C)C)C(=O)N[C@@H](CCC(N)=O)C(=O)N[C@@H](CCCCN)C(=O)N[C@@H](Cc1ccc(O)cc1)C(=O)N[C@@H](Cc1ccc(O)cc1)C(=O)N[C@H](C(=O)N[C@@H](CO)C(=O)N[C@@H](CC(C)C)C(=O)N[C@@H](CCCNC(=N)N)C(=O)N[C@@H](Cc1c[nH]cn1)C(=O)N[C@@H](Cc1ccc(O)cc1)C(=O)N[C@@H](Cc1ccc(O)cc1)C(=O)N[C@@H](CC(N)=O)C(=O)N[C@@H](Cc1c[nH]c2ccccc12)C(=O)N[C@@H](CC(C)C)C(=O)N[C@H](C(=O)N[C@@H](CCCNC(=N)N)C(=O)N[C@@H](CCC(N)=O)C(=O)N[C@@H](CCCNC(=N)N)C(=O)N[C@@H](Cc1ccc(O)cc1)C(N)=O)[C@@H](C)O)C(C)C
B2: Compound 207 (peptide)
peptide: Isovaleryl-APAK([AEEA-AEEA-γGlu-C18 diacid])PEADAEPEELQRYYVSLRHYYNWLTRQRY-NH2
SMILES: CC(C)CC(=O)N[C@@H](C)C(=O)N1CCC[C@H]1C(=O)N[C@@H](C)C(=O)N[C@@H](CCCCNC(=O)COCCOCCNC(=O)COCCOCCNC(=O)CC[C@H](NC(=O)CCCCCCCCCCCCCCCCC(=O)O)C(=O)O)C(=O)N1CCC[C@H]1C(=O)N[C@@H](CCC(=O)O)C(=O)N[C@@H](C)C(=O)N[C@@H](CC(=O)O)C(=O)N[C@@H](C)C(=O)N[C@@H](CCC(=O)O)C(=O)N1CCC[C@H]1C(=O)N[C@@H](CCC(=O)O)C(=O)N[C@@H](CCC(=O)O)C(=O)N[C@@H](CC(C)C)C(=O)N[C@@H](CCC(N)=O)C(=O)N[C@@H](CCCNC(=N)N)C(=O)N[C@@H](Cc1ccc(O)cc1)C(=O)N[C@@H](Cc1ccc(O)cc1)C(=O)N[C@H](C(=O)N[C@@H](CO)C(=O)N[C@@H](CC(C)C)C(=O)N[C@@H](CCCNC(=N)N)C(=O)N[C@@H](Cc1c[nH]cn1)C(=O)N[C@@H](Cc1ccc(O)cc1)C(=O)N[C@@H](Cc1ccc(O)cc1)C(=O)N[C@@H](CC(N)=O)C(=O)N[C@@H](Cc1c[nH]c2ccccc12)C(=O)N[C@@H](CC(C)C)C(=O)N[C@H](C(=O)N[C@@H](CCCNC(=N)N)C(=O)N[C@@H](CCC(N)=O)C(=O)N[C@@H](CCCNC(=N)N)C(=O)N[C@@H](Cc1ccc(O)cc1)C(N)=O)[C@@H](C)O)C(C)C
B3: Compound 212 (peptide)
peptide: Isovaleryl-APEK([AEEA-AEEA-γGlu-C18 diacid])PEEDTAPEELQRYYVSLRHYYNWLTRQRY-NH2
SMILES: CC(C)CC(=O)N[C@@H](C)C(=O)N1CCC[C@H]1C(=O)N[C@@H](CCC(=O)O)C(=O)N[C@@H](CCCCNC(=O)COCCOCCNC(=O)COCCOCCNC(=O)CC[C@H](NC(=O)CCCCCCCCCCCCCCCCC(=O)O)C(=O)O)C(=O)N1CCC[C@H]1C(=O)N[C@@H](CCC(=O)O)C(=O)N[C@@H](CCC(=O)O)C(=O)N[C@@H](CC(=O)O)C(=O)N[C@H](C(=O)N[C@@H](C)C(=O)N1CCC[C@H]1C(=O)N[C@@H](CCC(=O)O)C(=O)N[C@@H](CCC(=O)O)C(=O)N[C@@H](CC(C)C)C(=O)N[C@@H](CCC(N)=O)C(=O)N[C@@H](CCCNC(=N)N)C(=O)N[C@@H](Cc1ccc(O)cc1)C(=O)N[C@@H](Cc1ccc(O)cc1)C(=O)N[C@H](C(=O)N[C@@H](CO)C(=O)N[C@@H](CC(C)C)C(=O)N[C@@H](CCCNC(=N)N)C(=O)N[C@@H](Cc1c[nH]cn1)C(=O)N[C@@H](Cc1ccc(O)cc1)C(=O)N[C@@H](Cc1ccc(O)cc1)C(=O)N[C@@H](CC(N)=O)C(=O)N[C@@H](Cc1c[nH]c2ccccc12)C(=O)N[C@@H](CC(C)C)C(=O)N[C@H](C(=O)N[C@@H](CCCNC(=N)N)C(=O)N[C@@H](CCC(N)=O)C(=O)N[C@@H](CCCNC(=N)N)C(=O)N[C@@H](Cc1ccc(O)cc1)C(N)=O)[C@@H](C)O)C(C)C)[C@@H](C)O
B4: Compound 209 (peptide)
peptide: Isovaleryl-APEK([AEEA-AEEA-γGlu-C18 diacid])PEEDSEPEELQRYYVSLRHYYNWLTRQRY-NH2
SMILES: CC(C)CC(=O)N[C@@H](C)C(=O)N1CCC[C@H]1C(=O)N[C@@H](CCC(=O)O)C(=O)N[C@@H](CCCCNC(=O)COCCOCCNC(=O)COCCOCCNC(=O)CC[C@H](NC(=O)CCCCCCCCCCCCCCCCC(=O)O)C(=O)O)C(=O)N1CCC[C@H]1C(=O)N[C@@H](CCC(=O)O)C(=O)N[C@@H](CCC(=O)O)C(=O)N[C@@H](CC(=O)O)C(=O)N[C@@H](CO)C(=O)N[C@@H](CCC(=O)O)C(=O)N1CCC[C@H]1C(=O)N[C@@H](CCC(=O)O)C(=O)N[C@@H](CCC(=O)O)C(=O)N[C@@H](CC(C)C)C(=O)N[C@@H](CCC(N)=O)C(=O)N[C@@H](CCCNC(=N)N)C(=O)N[C@@H](Cc1ccc(O)cc1)C(=O)N[C@@H](Cc1ccc(O)cc1)C(=O)N[C@H](C(=O)N[C@@H](CO)C(=O)N[C@@H](CC(C)C)C(=O)N[C@@H](CCCNC(=N)N)C(=O)N[C@@H](Cc1c[nH]cn1)C(=O)N[C@@H](Cc1ccc(O)cc1)C(=O)N[C@@H](Cc1ccc(O)cc1)C(=O)N[C@@H](CC(N)=O)C(=O)N[C@@H](Cc1c[nH]c2ccccc12)C(=O)N[C@@H](CC(C)C)C(=O)N[C@H](C(=O)N[C@@H](CCCNC(=N)N)C(=O)N[C@@H](CCC(N)=O)C(=O)N[C@@H](CCCNC(=N)N)C(=O)N[C@@H](Cc1ccc(O)cc1)C(N)=O)[C@@H](C)O)C(C)C
B5: Compound 208 (peptide)
peptide: Isovaleryl-APEK([AEEA-AEEA-γGlu-C18 diacid])PEEDASEEETQRYYVSLRHYYNWLTRQRY-NH2
SMILES: CC(C)CC(=O)N[C@@H](C)C(=O)N1CCC[C@H]1C(=O)N[C@@H](CCC(=O)O)C(=O)N[C@@H](CCCCNC(=O)COCCOCCNC(=O)COCCOCCNC(=O)CC[C@H](NC(=O)CCCCCCCCCCCCCCCCC(=O)O)C(=O)O)C(=O)N1CCC[C@H]1C(=O)N[C@@H](CCC(=O)O)C(=O)N[C@@H](CCC(=O)O)C(=O)N[C@@H](CC(=O)O)C(=O)N[C@@H](C)C(=O)N[C@@H](CO)C(=O)N[C@@H](CCC(=O)O)C(=O)N[C@@H](CCC(=O)O)C(=O)N[C@@H](CCC(=O)O)C(=O)N[C@H](C(=O)N[C@@H](CCC(N)=O)C(=O)N[C@@H](CCCNC(=N)N)C(=O)N[C@@H](Cc1ccc(O)cc1)C(=O)N[C@@H](Cc1ccc(O)cc1)C(=O)N[C@H](C(=O)N[C@@H](CO)C(=O)N[C@@H](CC(C)C)C(=O)N[C@@H](CCCNC(=N)N)C(=O)N[C@@H](Cc1c[nH]cn1)C(=O)N[C@@H](Cc1ccc(O)cc1)C(=O)N[C@@H](Cc1ccc(O)cc1)C(=O)N[C@@H](CC(N)=O)C(=O)N[C@@H](Cc1c[nH]c2ccccc12)C(=O)N[C@@H](CC(C)C)C(=O)N[C@H](C(=O)N[C@@H](CCCNC(=N)N)C(=O)N[C@@H](CCC(N)=O)C(=O)N[C@@H](CCCNC(=N)N)C(=O)N[C@@H](Cc1ccc(O)cc1)C(N)=O)[C@@H](C)O)C(C)C)[C@@H](C)O
B6: Compound 210 (peptide)
peptide: Isovaleryl-APEK([AEEA-AEEA-γGlu-C18 diacid])IEEEASPEELQRYYVSLRHYYNWLTRQRY-NH2
SMILES: CC[C@H](C)[C@H](NC(=O)[C@H](CCCCNC(=O)COCCOCCNC(=O)COCCOCCNC(=O)CC[C@H](NC(=O)CCCCCCCCCCCCCCCCC(=O)O)C(=O)O)NC(=O)[C@H](CCC(=O)O)NC(=O)[C@@H]1CCCN1C(=O)[C@H](C)NC(=O)CC(C)C)C(=O)N[C@@H](CCC(=O)O)C(=O)N[C@@H](CCC(=O)O)C(=O)N[C@@H](CCC(=O)O)C(=O)N[C@@H](C)C(=O)N[C@@H](CO)C(=O)N1CCC[C@H]1C(=O)N[C@@H](CCC(=O)O)C(=O)N[C@@H](CCC(=O)O)C(=O)N[C@@H](CC(C)C)C(=O)N[C@@H](CCC(N)=O)C(=O)N[C@@H](CCCNC(=N)N)C(=O)N[C@@H](Cc1ccc(O)cc1)C(=O)N[C@@H](Cc1ccc(O)cc1)C(=O)N[C@H](C(=O)N[C@@H](CO)C(=O)N[C@@H](CC(C)C)C(=O)N[C@@H](CCCNC(=N)N)C(=O)N[C@@H](Cc1c[nH]cn1)C(=O)N[C@@H](Cc1ccc(O)cc1)C(=O)N[C@@H](Cc1ccc(O)cc1)C(=O)N[C@@H](CC(N)=O)C(=O)N[C@@H](Cc1c[nH]c2ccccc12)C(=O)N[C@@H](CC(C)C)C(=O)N[C@H](C(=O)N[C@@H](CCCNC(=N)N)C(=O)N[C@@H](CCC(N)=O)C(=O)N[C@@H](CCCNC(=N)N)C(=O)N[C@@H](Cc1ccc(O)cc1)C(N)=O)[C@@H](C)O)C(C)C

The experiment deals with T1, human neuropeptide Y2 receptor. Briefly: radioligand competition (125I-PYY(1-36)), hNPY2R membranes. The essentials: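 Commercial human Y2 receptor membranes (0.5 μg protein/well) were incubated with peptide for 2 h at room temperature in 50 mM HEPES, 5 mM MgCl₂, 1 mM CaCl₂, pH 7.4, with 0.2% ovalbumin. Bound radioligand was separated on PEI-soaked GF/C filters and counted by scintillation, and IC₅₀ came from nonlinear sigmoidal regression.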
B1 registered a Ki of 1.9 nM. In turn, B2 came in with an inhibition constant Ki of 1.07 nM. The molecule B3 returned a Ki of 20.3 nM. Against the preceding molecule, the Ki is about 19-fold higher. Then B4, with 8.07 nM. Then B5, with 3.8 nM; and B6, with 10.5 nM.
